Experimental data from article PMC11362169, “Interdomain-linkers control conformational transitions in the SLC23 elevator transporter UraA” (Nature Communications, 2024).
Blank lines part the entries; values can stand above or below the molecule they belong to.

Experiments:
[1] = molecular target: T1, UraA (Escherichia coli, UniProt P0AGM7); test: differential scanning fluorimetry (CPM dye); type: binding; details: 20 mM Hepes pH 7.5, 150 mM NaCl, 0.2% DM
T1 construct: full-length ORF, expressed in E. coli MC1061 from pBXC3GH (tag removed with HRV-3C protease), decylmaltoside-solubilized; C-terminal biotinylated AVI-tag for SPA; WT and G112P monomeric, P330G dimeric, G320P both fractions

[2] = molecular target: uracil; test: scintillation proximity assay (homologous competition with 3H-uracil)
[3] = molecular target: T2, wild type UraA (E. coli uracil permease) (E. coli, UniProt P0AGM7); test: differential scanning fluorimetry; UraA variants 0.1 mg/mL in 20 mM Hepes pH 7.5, 150 mM NaCl, 0.2% DM, without uracil, in absence and presence of Sy45; CPM dye, 25 to 90 °C at 2 °C/min; details: both partners purified
T2 construct: uracil permease UraA, E. coli; open reading frame amplified from genomic DNA of E. coli MC1061; Membrane protein in 0.2% decylmaltoside; elutes as monomers and dimers; A few residues of the FX cloning sites and of the 3C site probably remain after cleavage (surmised); also called UraA(WT); source: E. coli MC1061 (pBXC3GH), purified (decylmaltoside-solubilised, Ni-NTA, eluted with HRV-3C protease, …)

Molecule: O=c1cc[nH]c(=O)[nH]1 [uracil]
Tm with 1 mM uracil (apo Tm 54.2 ± 0.2 °C) [1]: 64.1 ± 0.1 °C

Kd ([2]; absence of Sy45): 7 nM
Molecule: wild type UraA (E. coli uracil permease) (from UniProt P0AGM7) P330G

Kd ([2]; absence of Sy45): 35 nM | Kd ([2]; presence of Sy45 (panel titled UraA(G320P)-Sy45)): 144 nM
Molecule: wild type UraA (E. coli uracil permease) (from UniProt P0AGM7) G320P

B1: sybody Sy45 (synthetic nanobody) (VHH)
VHH: QVQLVESGGGSVQAGGSLRLSCAASGNIAYIHYLGWFRQAPGKEREGVAALSTTLGNTYYADSVKGRFTVSLDNAKNTVYLQMNSLKPEDTALYYCAAAYFGYSSPLAHERYMYWGQGTQVTVSA
notes: sybody with a convex paratope, selected from a synthetic library against wild type UraA; also called synthetic single-domain antibody; conformational probe
thermostabilization (increase of melting temperature) [3]: 16.7 °C
